Test results published in PMC9098222.

Target: PIK3R2/p85β (UniProt O00459)
Assay: anti-Myc IP, PIK3R2 immunoblot
Details: reference: Myc-IRS4 wild type; sites Y779

binding against the reference: weaker
Substance: IRS4 (insulin receptor substrate 4) (from UniProt O14654) Myc-IRS4 Y779F
